Assay results as given in PMC7884259.

Molecular target: ATAD2B bromodomain (residues 953–1085) (human) (UniProt Q9ULI0)
Assay: ITC

Sequence of ATAD2B bromodomain (residues 953–1085) (human) (Q9ULI0 953-1085): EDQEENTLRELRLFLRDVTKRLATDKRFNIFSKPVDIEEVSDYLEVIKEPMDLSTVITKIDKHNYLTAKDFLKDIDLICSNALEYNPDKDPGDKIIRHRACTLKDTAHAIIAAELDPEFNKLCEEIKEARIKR

Row | Substance | Kd [µM]
1 | H4K12ac (res 4–17) (peptide) | 50.5
2 | H4K12acK16ac (res 10–20) (peptide) | 214
